Entries after “also recorded” stand apart in the source; their conditions may differ.
T1: FSTL1 (Homo sapiens, UniProt Q12841)
T1 sequence (Q12841 21-308): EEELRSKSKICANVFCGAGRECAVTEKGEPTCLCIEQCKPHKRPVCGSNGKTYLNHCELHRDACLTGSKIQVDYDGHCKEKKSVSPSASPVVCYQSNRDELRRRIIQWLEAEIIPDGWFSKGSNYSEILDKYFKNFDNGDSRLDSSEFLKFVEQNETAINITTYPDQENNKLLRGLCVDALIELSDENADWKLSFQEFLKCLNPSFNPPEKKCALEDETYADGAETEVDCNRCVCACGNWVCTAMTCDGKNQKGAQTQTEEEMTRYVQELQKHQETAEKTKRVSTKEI


What was measured:
[1] = tested on: human pancreatic cancer cell line Panc1; assay: Inhibitory activity against activation of tumor cell by FSTL1, RANKL-/CCR2-positive cells (Examples 5, 7, 9-11); assay type: cell-based
Protocol: It is known that tumor cells activated by stimulation with FSTL1 highly express molecule groups promoting bone metastasis and increase metastatic invasive capacity (Cancer Research 73: 6185, 2013). Thus, […] cells/well of a human pancreatic cancer cell line Panc1 were suspended in 1 mL/well of D-MEM medium (GIBCO/Thermo Fisher Scientific Inc. Cat. No. C11885500BT) containing 10% fetal bovine serum, supplemented with 50 ng/mL (final concentration) of FSTL1 (R&D Systems, Inc.) and 10 μg/mL of the anti-FSTL1 antibody (#5-2, #5-8, #5-10, #5-43, #6-55, or #7-34) or its isotype mouse IgG (anti-DNP antibody) as a control antibody “Control”, and cultured under stimulation (6-well plate). 3 days thereafter, the number of cells was counted while the cells were stained with a PE-labeled anti-RANKL antibody (eBioscience Cat. No. 12-6619) and a PE-labeled anti-CCR2 antibody (R&D Systems, Inc. Cat. No. FAB151P) in order to examine the expression of markers indicating bone metastatic properties, and the contents of RANKL-positive cells and CCR2-positive cells were analyzed by flow cytometry using FACScan (Becton, Dickinson and Company) to calculate the numbers of cells per culture. […] Therefore, in Examples below, judgment was made with the number of cells as an index.
In the same way as in Example 5, a human pancreatic cancer cell line Panc1 was supplemented with 50 ng/mL (final concentration) of FSTL1 (R&D Systems, Inc.) and 10 μg/mL of the anti-FSTL1 antibody (the same clones as in Example 6) or a control antibody and cultured under stimulation.
3 days thereafter, the number of cells was counted while the cells were stained with a PE-labeled anti-RANKL antibody and a PE-labeled anti-CCR2 antibody, and the contents of RANKL-positive cells and CCR2-positive cells were analyzed by flow cytometry using FACScan (Becton, Dickinson and Company) to calculate the numbers of cells per culture (FIG. 5B).
(§1) In the same way as in Example 5, a human pancreatic cancer cell line Panc1 was supplemented with 20 ng/mL (final concentration) of FSTL1 and 10 μg/mL of the anti-FSTL1 antibody (#5-2, #5-8, or #6-55) or a control antibody and cultured under stimulation. 3 days thereafter, the number of cells was counted while the cells were stained with a PE-labeled anti-RANKL antibody and a PE-labeled anti-CCR2 antibody, and the contents of RANKL-positive cells and CCR2-positive cells were analyzed by flow cytometry using FACScan (Becton, Dickinson and Company) to calculate the numbers of cells per culture (FIG. 6B).
as §1, with “50” for “20”, “#5-3, #6-55, #7-34, #8-1, #8-4, #8-7,” for “#5-8,”, “#8-8)” for “#6-55)”, “culture.” for “culture (FIG. 6B).”
as §1, with “50” for “20”, “(#6-55)” for “(#5-2, #5-8, or #6-55)”, “culture.” for “culture (FIG. 6B).”
It is known that tumor cells activated by stimulation with FSTL1 highly express molecule groups promoting bone metastasis and increase metastatic invasive capacity (Cancer Research 73: 6185, 2013). […]

FSTL1 = molecular target: T1, FSTL1; assay: Inhibition of MSC induction by FSTL1 in mouse bone marrow cells, CD45-negative cells (Examples 6, 8, 12); assay type: cell-based; set-up: purchased R&D Systems, Inc. 1694-FN-050; conditions: antibody 10 μg/mL
Protocol: Mouse bone marrow cells prepared in the same way as in Example 4 were supplemented with 50 ng/mL (final concentration) of FSTL1 and 10 μg/mL of the anti-FSTL1 antibody (#5-2, #5-3, #5-8, #5-10, 45-43, #6-55, or #7-34) or a control antibody anti-DNP antibody and cultured under stimulation. 11 days thereafter, the number of cells was counted while the cells were stained with a PE-Cy5-labeled anti-CD45 antibody (BD Pharmingen/Becton, Dickinson and Company, Cat. No. 555484), and the content of CD45− negative cells reported to generally contain MSCs at a high rate was analyzed by flow cytometry using FACScan to calculate the percentage and number of MSCs per culture (FIG. 67A).
(§2) Mouse bone marrow cells prepared in the same way as in Example 4 were supplemented with 20 ng/mL (final concentration) of FSTL1 and 10 μg/mL of the anti-FSTL1 antibody (#5-2, #5-3, #5-8, #5-10, #5-43, #6-55, #8-1, #8-4, #8-7, and #8-8) or a control antibody anti-DNP antibody and cultured under stimulation. 8 days thereafter, the number of cells was counted while the cells were stained with a PE-Cy5-labeled anti-CD45 antibody, and the content of CD45− negative cells was analyzed by flow cytometry using FACScan to calculate the percentage and number of MSCs per culture (FIG. 68A).
as §2, with “(#5-2,” for “(#5-2, #5-3,”, “#5-8,” for “#5-8, #5-10, #5-43,”, “#6-55, #7-34,” for “#6-55,”, “#8-7, or” for “#8-7, and”, “(FIG. 69).” for “(FIG. 68A).”

[2] = Example 8, FSTL1 20 ng/mL, 8 days
[3] = Example 12, FSTL1 20 ng/mL, 8 days
[4] = Example 6, FSTL1 50 ng/mL, 11 days

| Molecule | inhibitory activity against the expansion of CD45-negative cells by FSTL1 (FSTL1; [2]) | inhibitory activity against the expansion of CD45-negative cells by FSTL1 (FSTL1; [3]) | inhibitory activity against the expansion of CD45-negative cells by FSTL1 (FSTL1; [4]) | other results |
| --- | --- | --- | --- | --- |
| #6-55: chicken-mouse chimeric anti-FSTL1 antibody clone; variable regions SEQ ID NO: 783 (light), 785 (heavy) (antibody, V domains shown, mouse constant regions) VH: AVTLDESGGGLQTPGGALSLVCKGSGFTFTSVTMQWVRQAPGKGLEWVASVCSGSSTYYAPAVKGRATISRDNGQSTVRLQLSNLRPEDTGTYYCAKIAGRARWSCTSAAYNIDAWGHGTEVIVSS VL: ASTQPSSVSAIPGETVKITCSGGGNNYGWYQQRSPGSAPVTVIYYNDNRPSNIPSRFSGSTSGSTSTLTITGVQADDEAIYYCGSWDSNTDSGIFGAGTTLTVL | Inhibitory activity was confirmed; also recorded: exhibited inhibitory activity | higher inhibitory activity was confirmed in the order of #7-34, #5-2, #6-55, and #8-7 | – | inhibitory activity against the expansion of RANKL-positive cells and CCR2-positive cells ([1]; Example 9, FIG. 6B/36B, FSTL1 20 ng/mL, antibody 10 μg/mL, 3 days): exhibited inhibitory activity against the expansion of RANKL-positive cells and CCR2-positive cells; also recorded: higher inhibitory activity; inhibitory activity against the expansion of RANKL-positive cells and CCR2-positive cells ([1]; Example 10, FIG. 6C/36C, FSTL1 50 ng/mL, antibody 10 μg/mL, 3 days): high inhibitory activity; also recorded: higher inhibitory activity; dose dependence of the antibody ([1]; Example 11, FIG. 6D/36D, 5, 10, 20 μg/mL): the dose dependence of antibody was not confirmed; also recorded: the dose dependence of the antibody was not confirmed; inhibitory activity against the expansion of RANKL-positive cells and CCR2-positive cells ([1]; Example 11, FIG. 6D/36D, FSTL1 50 ng/mL, at all tested doses 5, 10 and 20 μg/mL): ~100%; inhibition of cell induction of RANKL-positive cells and CCR2-positive cells ([1]; Example 11, FIG. 6D/36D, dose dependence test): exhibited inhibitory activity; also recorded: strongly inhibited the cell induction of both RANKL-positive cells and CCR2-positive cells at the same time |
| #7-34: chicken-mouse chimeric anti-FSTL1 antibody clone; variable regions SEQ ID NO: 787 (light), 789 (heavy) (antibody, V domains shown, mouse constant regions) VH: AVTLDESGGGLQTPGGGLSLVCKASGFTFSSVTMQWVRQAPGKGLEWVASICSGSSTYYGPAVKGRATISRDNGQNTVRLQLNNLRAEDTATYYCAKIVGRGRWSCTSAAYNIDAWGHGTEVIVSS VL: ASTQPSSVSANPGETVKITCSGGGNNYGWYQQKSPGSAPVTVIYYNNNRPSNIPSRFSGSTSGSTSTLTITGVQAEDEAVYYCGSYEGSTDSGIFGAGTTLTVL | – | stronger inhibitory activity was confirmed in the order of clone #7-34, #5-2, 46-55, and #8-7; also recorded: higher inhibitory activity was confirmed in the order of #7-34, #5-2, #6-55, and #8-7; also recorded: stronger inhibitory activity was confirmed in the order of clone #7-34, #5-2, 96-55, and #8-7 | higher inhibitory activity and substantially completely inhibited the action of FSTL1 | – |
| #5-43: chicken-mouse chimeric anti-FSTL1 antibody clone; variable regions SEQ ID NO: 779 (light), 781 (heavy) (antibody, V domains shown, mouse constant regions) VH: AVTLDESGGGLQTPGGGLSLVCKGSGFTFSSFNMFWVRQAPGKGLEWVAGIGKDGGTGYGAAVDGRATISKDSGQSTLRLQLNNLRAEDTGTYYCAKAAGGCSYDWCGAYTGDIDTWGHGTEVIVSS VL: ASTQPSSVSANPGEAVKITCSGGSGSYYGWYQQKSPGSAPVTVIYNNNQRPSDIPSRFSGSKSGSTATLTITGVQAEDEAVYFCGGYDSSTGHGGIFGAGTTLTVL | Inhibitory activity was confirmed; also recorded: exhibited inhibitory activity | – | higher inhibitory activity and substantially completely inhibited the action of FSTL1 | – |
| #8-1: chicken-mouse chimeric anti-FSTL1 antibody clone; variable regions SEQ ID NO: 791 (light), 793 (heavy) (antibody, V domains shown, mouse constant regions) VH: AVTLDESGGGLQTPGGALSLVCKGSGFTFSSFNMFWVRQAPGKGLEWVAGIGKDGVPKYGAAVDGRATISKDNGQSTMRLQLNNLRAEDTGTYFCAKAAGGCSYDWCGIYAGDIDTWGHGTEVIVSS VL: ASTQPSSVSANPGEAVKITCSGGSGSYYGWYQQKSPGSAPVTVIYNNNQRPSDIPSRFSGSKSGSTATLTITGVQAEDEAVYFCGGYDSSSGHGGIFGAGTTLTVL | Inhibitory activity was confirmed; also recorded: exhibited inhibitory activity | – | – | – |
| #5-3: chicken-mouse chimeric anti-FSTL1 antibody clone; variable regions SEQ ID NO: 767 (light), 769 (heavy) (antibody, V domains shown, mouse constant regions) VH: AVTLDESGGGLQTPGGALSLVCKGSGFSFSSFNMFWVRQAPGKGLEWVAGIGKDGVPKYGAAVDGRATISKDNGQSTMRLQLNNLRAEDTGTYFCAKAAGGCSYDWCGIYAGDIDTWGHGTEVIVSS VL: ASTQPSSVSANPGETVKITCSGGSGYYYGWYQQKSPGSVPVTVIYNNNNRPSDIPSRFSGSKSGSTGTLTITGVRAEDEAVYYCGGYDNSGTGIFGAGTTLTVL | – | – | higher inhibitory activity and substantially completely inhibited the action of FSTL1 | inhibitory activity against the expansion of RANKL-positive cells and CCR2-positive cells ([1]; Example 7, FIG. 5B/35B, FSTL1 50 ng/mL, antibody 10 μg/mL, 3 days): higher inhibitory activity |

From patent US20180021429A1, “ANTICANCER AGENTS OR ANTIMETASTATIC AGENTS USING FSTL1 AND COMBINATION DRUG THEREOF” (PHARMA FOODS INTERNATIONAL CO., LTD., priority 2015, published 2018)
